Patent US20240301068A1 (BEIJING HANMI PHARMACEUTICAL, published 2024)
Where a chain is given by its changes, count along the chain named.

Key:
[1] = target: T1, recombinant human PD-L1-Fc protein (human, UniProt Q9NZQ7 19-238, limits assumed); experiment: blocking ELISA, plate coated with 1 ug/mL human PD-L1-Fc; blocked ligand biotin-labelled PD-1-Fc at 20 nM final, streptavidin-HRP, OD450
T1 construct: Prepared by Beijing Hanmi Pharmaceutical; The GenBank number is NP_001254635.1
Protocol: (§1) A 96-well high-adsorption ELISA plate was coated with 1 μg/mL of the recombinant human PD-L1-Fc at 100 μL per well using carbonate buffer solution, pH=9.6 at 4° C. overnight. The plate was washed 5 times with PBST, and then blocked using PBST with 1% BSA, 300 μL/well, and incubated at 25° C. for 1 hour, and then washed 5 times with PBST. […] The Streptavidin-HRP (BD Pharmingen, catalog number 554066) diluted 1:1000 in PBST with 1% BSA was then added, 100 μL per well, and incubated at 25° C. for 1 hour. The plate was washed 5 times with PBST. The colorimetric substrate TMB was added, 100 μL/well, and developed at room temperature for 10 minutes. 1M H₂SO₄ was added, 100 μL/well, to stop the development. The absorbance at 450 nm was read on a microplate reader.

[2] = target: T2, recombinant human PD-L1 (Sino Biological Inc.) (human, UniProt Q9NZQ7 19-239); experiment: ELISA, plate coated with 1 ug/mL recombinant human PD-L1, anti-mouse IgG-HRP, OD450
Protocol: The plate was washed 5 times with PBST, and then blocked using PBST with 1% BSA, 300 μL/well, and incubated at 25° C. for 1 hour, and then washed 5 times with PBST. […] The plate was washed 5 times with PBST. The colorimetric substrate TMB was added, 100 μL/well, and developed at room temperature for 10 minutes. 1M H₂SO₄ was added, 100 μL/well, to stop the development. The absorbance at 450 nm was read on a microplate reader.

[3] = target: T1, recombinant human PD-L1-Fc protein; experiment: competition ELISA: PD-L1-Fc coated, competitor biotin-labelled PD-1-Fc
Protocol: as §1

[4] = target: T2, recombinant human PD-L1 (Sino …); experiment: ELISA, human PD-L1 coated
Protocol: as §1, with “PD-L1 (Sino Biological Inc.)” for “PD-L1-Fc”, “horseradish peroxidase-labeled anti-human IgG antibody (Chemicon,” for “Streptavidin-HRP (BD Pharmingen,”, “AP309P)” for “554066)”, “1:10000” for “1:1000”

[5] = target: T2, recombinant human PD-L1 (Sino …); experiment: affinity determination (dissociation constant), method not stated
[6] = target: T2, recombinant human PD-L1 (Sino …); experiment: PD-L1/CD80 blocking assay, competitor CD80, format not described
[7] = target: T2, recombinant human PD-L1 (Sino …); experiment: SPR, Biacore X100
Protocol: This instrument utilizes optical surface plasmon resonance technology to detect the association and dissociation between the molecules coated on the biochip and the molecules to be tested. Association constants and dissociation constants were analyzed and calculated by Biacore X100 evaluation software. […]

T1 sequence (Q9NZQ7 19-238 limits assumed): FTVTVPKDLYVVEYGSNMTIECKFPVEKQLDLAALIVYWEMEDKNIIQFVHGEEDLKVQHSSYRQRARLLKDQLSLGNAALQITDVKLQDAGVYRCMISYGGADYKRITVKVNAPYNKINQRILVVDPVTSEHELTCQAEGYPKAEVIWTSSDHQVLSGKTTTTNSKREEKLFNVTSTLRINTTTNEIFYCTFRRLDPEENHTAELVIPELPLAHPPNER
T2 sequence (Q9NZQ7 19-239 limits assumed): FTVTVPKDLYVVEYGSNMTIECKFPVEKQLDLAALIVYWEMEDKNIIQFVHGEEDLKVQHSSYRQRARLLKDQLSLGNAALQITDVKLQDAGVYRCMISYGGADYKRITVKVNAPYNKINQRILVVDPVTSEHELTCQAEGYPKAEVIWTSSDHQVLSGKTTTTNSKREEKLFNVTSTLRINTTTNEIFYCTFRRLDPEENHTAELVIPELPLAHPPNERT

B1: murine anti-human PD-L1 monoclonal antibody secreted by the clone 34-35 (antibody, V domains shown)
VH: EVQLQQSGAELVKPGASVKLSCTASGFNIEDTYIHWVMQRPEQGLEWIGRIDPANGNTKYDPKFQGKATITADTSSNTAYLQLSSLTSEDTAVYYCGRGLGAWFAYWGQGTLVTVSA
VL: DIVMTQSHKVMSTSVGDRVTITCKASQDVHTAVAWIHQKPGQSPKLLIYSASNRYTGVPDRFTGSGSGTDFTFTISSVQAEDLAVYYCQQHYITPLTFGAGTTLELK
notes: also called murine monoclonal antibodies
IC50 [1]: 0.61 nM | EC50 [2]: 0.494 nM

B2: humanized anti-human PD-L1 monoclonal antibody VLS10-VHS7 (antibody, human IgG1, kappa, V domains shown)
VH: QVQLVQSGAEVKKPGSSVKVSCTASGFNIEDTYIHWVRQAPGQGLEWMGRIDPANGNTKYDPKFQGRVTITADTSTNTAYMELSSLRSEDTAVYYCGRGLGAWFAYWGQGTLVTVSS
VL: DIQMTQSPSSLSASVGDRVTITCKASQDVHTAVAWIHQKPGKAPKLLIYSASNRYTGVPSRFSGSGSGTDFTFTISSLQPEDIATYYCQQHYITPLTFGQGTKLEIKR
IC50 [3]: 0.749 nM | EC50 [4]: 0.067 nM | koff [5]: 0.000672 s⁻¹ | IC50 [6]: 0.89 nM | Kd [7]: 1.71 nM | koff [7]: 0.000584 s⁻¹ | kon [7]: 341000 M⁻¹ s⁻¹

B3: humanized anti-human PD-L1 monoclonal antibody VLS10-VHS7 P1 (antibody, human IgG1, kappa, V domains shown)
VH: B2 VH with N55Q
VL: B2 VL
IC50 [3]: 0.756 nM | EC50 [4]: 0.067 nM | IC50 [6]: 0.865 nM | Kd [7]: 3.16 nM | koff [7]: 0.00108 s⁻¹ | kon [7]: 341000 M⁻¹ s⁻¹

B4: humanized anti-human PD-L1 monoclonal antibody VLS15-VHS12 (antibody, human IgG1, kappa, V domains shown)
VH: B2 VH with Q1E, T23K
VL: B2 VL with H37Q, A43S
IC50 [3]: 0.666 nM | EC50 [4]: 0.046 nM | koff [5]: 0.000486 s⁻¹ | IC50 [6]: 0.802 nM | Kd [7]: 1.39 nM | koff [7]: 0.000477 s⁻¹ | kon [7]: 342000 M⁻¹ s⁻¹

B5: humanized anti-human PD-L1 monoclonal antibody VLS9-VHS6 (antibody, human IgG1, kappa, V domains shown)
VH: B2 VH with V68A, T74E
VL: B2 VL with I36Y, H37Q
koff [5]: 0.00618 s⁻¹

B6: humanized anti-human PD-L1 monoclonal antibody VLS15-VHS12 P1 (antibody, human IgG1, kappa, V domains shown)
VH: B2 VH with Q1E, T23K, N55Q
VL: B2 VL with H37Q, A43S
IC50 [3]: 0.567 nM | EC50 [4]: 0.048 nM | IC50 [6]: 0.795 nM | Kd [7]: 2.56 nM | koff [7]: 0.000833 s⁻¹ | kon [7]: 326000 M⁻¹ s⁻¹

B7: humanized anti-human PD-L1 monoclonal antibody VLS9-VHS4 (antibody, human IgG1, kappa, V domains shown)
VH: B2 VH with T74E
VL: B2 VL with I36Y, H37Q
koff [5]: 0.00544 s⁻¹

B8: humanized anti-human PD-L1 monoclonal antibody VLS9-VHS3 (antibody, human IgG1, kappa, V domains shown)
VH: B2 VH with N77S
VL: B2 VL with I36Y, H37Q
koff [5]: 0.0052 s⁻¹

B9: humanized anti-human PD-L1 monoclonal antibody VLS15-VHS12 P3 (antibody, human IgG1, kappa, V domains shown)
VH: B2 VH with Q1E, T23K, G56A
VL: B2 VL with H37Q, A43S
IC50 [3]: 0.613 nM | EC50 [4]: 0.075 nM | IC50 [6]: 0.813 nM | Kd [7]: 1.56 nM | koff [7]: 0.000528 s⁻¹ | kon [7]: 338000 M⁻¹ s⁻¹

B10: humanized anti-human PD-L1 monoclonal antibody VLS10-VHS4 (antibody, human IgG1, kappa, V domains shown)
VH: B2 VH with T74E
VL: B2 VL
koff [5]: 0.00156 s⁻¹

B11: humanized anti-human PD-L1 monoclonal antibody VLS9-VHS5 (antibody, human IgG1, kappa, V domains shown)
VH: B2 VH with V68A, N77S
VL: B2 VL with I36Y, H37Q
koff [5]: 0.00438 s⁻¹

B12: humanized anti-human PD-L1 monoclonal antibody VLS10-VHS7 P2 (antibody, human IgG1, kappa, V domains shown)
VH: B2 VH with N55S
VL: B2 VL
IC50 [3]: 0.725 nM | EC50 [4]: 0.059 nM | IC50 [6]: 0.857 nM | Kd [7]: 3.23 nM | koff [7]: 0.000994 s⁻¹ | kon [7]: 307000 M⁻¹ s⁻¹

B13: humanized anti-human PD-L1 monoclonal antibody VLS10-VHS6 (antibody, human IgG1, kappa, V domains shown)
VH: B2 VH with V68A, T74E
VL: B2 VL
koff [5]: 0.00121 s⁻¹

B14: humanized anti-human PD-L1 monoclonal antibody VLS10-VHS8 (antibody, human IgG1, kappa, V domains shown)
VH: B2 VH with V68A
VL: B2 VL
koff [5]: 0.000652 s⁻¹

B15: humanized anti-human PD-L1 monoclonal antibody VLS10-VHS1 (antibody, human IgG1, kappa, V domains shown)
VH: B2 VH with T74E, N77S
VL: B2 VL
koff [5]: 0.00424 s⁻¹

B16: humanized anti-human PD-L1 monoclonal antibody VLS10-VHS7 P3 (antibody, human IgG1, kappa, V domains shown)
VH: B2 VH with G56A
VL: B2 VL
IC50 [3]: 0.617 nM | EC50 [4]: 0.063 nM | IC50 [6]: 0.804 nM | Kd [7]: 2.93 nM | koff [7]: 0.000747 s⁻¹ | kon [7]: 255000 M⁻¹ s⁻¹

B17: humanized anti-human PD-L1 monoclonal antibody VLS10-VHS3 (antibody, human IgG1, kappa, V domains shown)
VH: B2 VH with N77S
VL: B2 VL
koff [5]: 0.00121 s⁻¹

B18: humanized anti-human PD-L1 monoclonal antibody VLS15-VHS14 (antibody, human IgG1, kappa, V domains shown)
VH: B2 VH with Q1E, T23K, M48I, V68A
VL: B2 VL with H37Q, A43S
koff [5]: 0.000452 s⁻¹

B19: humanized anti-human PD-L1 monoclonal antibody VLS9-VHS1 (antibody, human IgG1, kappa, V domains shown)
VH: B2 VH with T74E, N77S
VL: B2 VL with I36Y, H37Q
koff [5]: 0.00597 s⁻¹

B20: humanized anti-human PD-L1 monoclonal antibody VLS9-VHS2 (antibody, human IgG1, kappa, V domains shown)
VH: B2 VH with V68A, T74E, N77S
VL: B2 VL with I36Y, H37Q
koff [5]: 0.00599 s⁻¹

B21: humanized anti-human PD-L1 monoclonal antibody VLS15-VHS12 P2 (antibody, human IgG1, kappa, V domains shown)
VH: B2 VH with Q1E, T23K, N55S
VL: B2 VL with H37Q, A43S
IC50 [3]: 0.585 nM | EC50 [4]: 0.06 nM | IC50 [6]: 0.755 nM | Kd [7]: 1.94 nM | koff [7]: 0.00072 s⁻¹ | kon [7]: 372000 M⁻¹ s⁻¹

B22: humanized anti-human PD-L1 monoclonal antibody VLS15-VHS11 (antibody, human IgG1, kappa, V domains shown)
VH: B2 VH with Q1E, T23K, T74E
VL: B2 VL with H37Q, A43S
koff [5]: 0.000841 s⁻¹

B23: humanized anti-human PD-L1 monoclonal antibody VLS10-VHS2 (antibody, human IgG1, kappa, V domains shown)
VH: B2 VH with V68A, T74E, N77S
VL: B2 VL
koff [5]: 0.00325 s⁻¹

B24: humanized anti-human PD-L1 monoclonal antibody VLS15-VHS13 (antibody, human IgG1, kappa, V domains shown)
VH: B2 VH with Q1E, T23K, M48I, V68A, T74E
VL: B2 VL with H37Q, A43S
koff [5]: 0.000763 s⁻¹

B25: humanized anti-human PD-L1 monoclonal antibody VLS9-VHS8 (antibody, human IgG1, kappa, V domains shown)
VH: B2 VH with V68A
VL: B2 VL with I36Y, H37Q
koff [5]: 0.00532 s⁻¹

B26: humanized anti-human PD-L1 monoclonal antibody VLS10-VHS5 (antibody, human IgG1, kappa, V domains shown)
VH: B2 VH with V68A, N77S
VL: B2 VL
koff [5]: 0.000994 s⁻¹

B27: humanized anti-human PD-L1 monoclonal antibody VLS9-VHS7 (antibody, human IgG1, kappa, V domains shown)
VH: B2 VH
VL: B2 VL with I36Y, H37Q
koff [5]: 0.0058 s⁻¹
